Source: the nanobody polyreactivity screen of Harvey et al. (2022)

test: yeast display, Sf9 membrane polyspecificity reagent, FACS + sequencing; frameworks hold sequencing errors
Method in brief: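 Nanobodies from a synthetic yeast display library (Saccharomyces cerevisiae BJ5465), induced 36–48 hours with galactose, were stained 1 hour at 4 °C with 10% biotinylated, detergent-solubilized Sf9 membrane reagent, enriched on streptavidin microbeads, then FACS-sorted. Anti-HA (expression) and streptavidin (reagent binding) fluorescence set low and high (top ~1%) gates. Polyreactivity labels come from the gate of origin. Genes were colony-PCR amplified, MiSeq 2 × 250 sequenced and filtered by CDR length.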

Row | Sequence | polyreactivity (PSR sort gate)
1 | QVQLVESGGGLVQAGGSLRLSCAASGSTFAYYDMGRYRPAPGKERELVAAITIDGRTSYADSVKGRFTISRDNAMNTVYLQMNSLKPEDTAVYYCNTEIRLSKYDYWGQGTQVTVSS | low polyreactivity
2 | QVQLVESGGGLVQAGGSLRLSCAASGSTFCRNAMGWYRQAPGKERELVAAISRRGGSTYYADSVKGRFTISRDNAKNTVYLQMTSLKPEDTAVYYCYRDSSYKHNYDYWAQGTQVTVSS | high polyreactivity
3 | QVQLVESGGGLVQAGGSLRLSCAASGSTFDANAMGWYRQAPGKERELVARMSRSTGSTYYADSVKGRFTISRDTAMNSVYLQLNSLKPVDTAVYYCAKVSRASNKYGYWGQGTQVTVSS | high polyreactivity
4 | QVQLVESGGGLVQAGGSLRLSCAASGSTFDAYAMGWYIQAPGKERELVAAITNGGSTNYADSVKGRFTISRDNAKNTVYLQMNSLQPEDTAVYYCNAQHRTVRGIFGRFNYWGQGTQVTVSS | low polyreactivity
5 | QVQLVESGGGLVQAGGSLRLSCAASGSTFDAYAMGWYRQAPGKERELVAAITNAGSTNYADSVKGRFTISRDNAKNTVYLQMNSLKPEDTAVYYCATDWYHRYLDGRYDYWGQGTQVTVSS | low polyreactivity
6 | QVQLVESGGGLVQAGGSLRLSCAASGSTFDDNAMGGYREAPRKERELVAGISDGDDSTNYADSVKGRFTISRDNAKNTVYLQMNSLTPEDTEVYFCNARYVRTYGVRFGYDYWGQGTQVTVSS | low polyreactivity
7 | QVQLVESGGGLVQAGGSLRLSCAASGSTFDDNAMGWYRQAPGKDRELVAGISTNGGSTSYADSVKGRFTISRDNAKNTVYLPMNSLKPEDTAVYYCAKGLYVQFDYWGQGTQVTVSS | low polyreactivity
8 | QVQLVESGGGLVQAGGSLRLSCAASGSTFDDYDMGWYRQAPGKEREFVATIDWSGGSTYYADSVKGRFTNSRDNAKNTVYLQMNSLKPEDTAVYYCTALRYVVYFDDDYWGQGTQVTVSS | high polyreactivity
9 | QVQLVESGGGLVQAGGSLRLSCAASGSTFDDYVMGWYRQAPGKERELVAGINSRGTSTDYADSVKGRFTISRDNAKNTVYLQMNSLIPEDTAVYYCAADDSHGYDYWGQGTQVTVSS | low polyreactivity
10 | QVQLVESGGGLVQAGGSLRLSCAASGSTFDGNAMGWYRQAPGKDRELVAAITWRDGSPSYADSVKGRFTISRDNAKNTVYLQMNSLKPEDTAVYYCNADPGYLDEEYWGQGTQVTVSS | low polyreactivity
11 | QVQLVESGGGLVQAGGSLRLSCAASGSTFDGNAMGWYRQAPGKERELVAAITYTTSSTYYADSVKGRFTISRDNAKNTVYLQMTSLKPEDTAVYYWGQGTQVTVSS | low polyreactivity
12 | QVQLVESGGGLVQAGGSLRLSCAASGSTFDGNDMGWYRQAPGKERELVAAITIGGGSTYYADSVKGRFTISRDNAKNTVYLQMNSLKPEDTAVYYCAAVYFYSWEGDGDYWGQGTQVTVSS | low polyreactivity
13 | QVQLVESGGGLVQAGGSLRLSCAASGSTFDGYAMGWSRQAPGKERELVAAITFDGSSTYYADSVKGRFTISRDNAKNTVYLQMNSLKPEDTAVYYCAAASSYWVLWDDYWGQGTQVTVSS | low polyreactivity
14 | QVQLVESGGGLVQAGGSLRLSCAASGSTFDGYAMGWYRQAPGKERELVAAINWGGGSTRYADSVKGRFTISRDNAKNTVYLQMNSVKPEDTAVYYCAARRFAYYFQYLVGGYWGQGTQVTVSS | high polyreactivity
15 | QVQLVESGGGLVQAGGSLRLSCAASGSTFDGYTMGWYRQAPGKERELVAAISWRGTSTYYADSVKGRFTISRDNAKNTVYLQMNSLKPEDTAVYYCGAENWKPRVYWIYSGHHGYWGQGTQVTVSS | low polyreactivity
16 | QVQLVESGGGLVQAGGSLRLSCAASGSTFDINAMGWYRQAPGKERELVAAINWSGDSTYYADSVKGRFTISRDTAKNTVYLQMNSLKPEDTAVYYCNADTIVAWFDIFEEMDSWGQGTQVTVSS | low polyreactivity
17 | QVQLVESGGGLVQAGGSLRLSCAASGSTFDIYAMGWYRQAPGKERELVAAITSGGSTYADSVKGRFTISRDNAKNTVYLQKNSLKPVETAVYYSNADRWFGNYRHLTFLNDYWGQGTQVTVSA | low polyreactivity
18 | QVQLVESGGGLVQAGGSLRLSCAASGSTFDIYAMGWYRQAPGKERELVAAITVSGGSTYYADSVKGRFTISRDNAKNTVYLQMNSLKPEDTAVYYCNADWSGWQGWYNYWGQGTQVTVSS | low polyreactivity
19 | QVQLVESGGGLVQAGGSLRLSCAASGSTFDKNDMGWYRQAPGRERELVAAITSSGSSTYYADSVKGRFTISRDNAKNTVYLQMNSLKPADTAVYYCAADKYYYDRLSPSGDYWGQGTQVTVSS | low polyreactivity
20 | QVQLVESGGGLVQAGGSLRLSCAASGSTFDNTMGWYRQEPGKEKEFVATISWRGGSTYYADSVKGRFTISRDNAKNTVYLQMNSLKPEDTAVYYCAAEVDYRVYWNEVDYWGQGTQVNVSS | low polyreactivity
21 | QVQLVESGGGLVQAGGSLRLSCAASGSTFDNYAMGWYRQAPGKERELVAAINSRGGRTYYADSVKGRFTISRDNAKNTVYLQMNSLKPDDTAVYYCAAVGATHRFDYWGQGTQVTVSS | high polyreactivity
22 | QVQLVESGGGLVQAGGSLRLSCAASGSTFDNYAMGWYRQAPGKERELVAAITTGVTTYYADSVKGRFTISRDNAKNTVYLQMISLKPEDTAVYYCAADYVSYSQARHEYGYWGQGTQVTVSS | low polyreactivity

Row | Sequence | polyreactivity (PSR sort gate)
23 | QVQLVESGGGLVQAGGSLRLSCAASGSTFDPNVMGWYRQAPGKERELVAAISSIGGSTYYADSVKGRFTISRDNAKNTVYLQMNSLNPQDTAVYYCAAGYPRFGYDYWGQGTQVTVSS | high polyreactivity
24 | QVQLVESGGGLVQAGGSLRLSCAASGSTFDPYAMGWYRQAPGKERELVAAISRSGASTYADSVKGRFTISRDNAKNTVYLQMNSLKPEDTAVYYCAADSGYPYDYWGQGTQVTVSS | low polyreactivity
25 | QVQLVESGGGLVQAGGSLRLSCAASGSTFDPYAMGWYRQAPGKERELVATINTGGDTHYADSVKGRFTISRDNAKNTVYLQMNSLKPEDTAVYYCNADYGKSRWIFDYWGQGTQVTVSS | low polyreactivity
26 | QVQLVESGGGLVQAGGSLRLSCAASGSTFDPYGKGWYRQAPGKERELVATITYSSGSTSYADSVKGRFTISRDHAKNTVYLQMNSLKPEDTAVYYCAKKYYTGYGYWGQGTQVTVSS | low polyreactivity
27 | QVQLVESGGGLVQAGGSLRLSCAASGSTFDQNGMGWYRQAPGKERELVATISTSAGTYYADSVKGRFTISRDNAKNTVYLQMNSLKPEDTAVYYCNADLGGQYKEFDYWGQGTQVTVSS | low polyreactivity
28 | QVQLVESGGGLVQAGGSLRLSCAASGSTFDQYAMGWYRQEPGKERELGAAISGSGGRTYYADSVKGRFTISRDNAKNTVYLQLNSLKPEDTAVYYCNTRAWRWGTDNSWGQGTQVTVSS | high polyreactivity
29 | QVQLVESGGGLVQAGGSLRLSCAASGSTFDRNAMGWYRPAPGKERELVAAISWTGTSTRYADSVKGRFTISRDNAKNTVYLHMNSLKPEDTAGYYCAARGYSYYQRLYYWGQGTQVTVSS | high polyreactivity
30 | QVQLVESGGGLVQAGGSLRLSCAASGSTFDRNVMGWYRQAPGKERELVAAISRVSSTNYSDSVKGRFTISRDNAKNTVYLQMNSLKPEDTAVYYCAADRAGSIMNYWGQGTQVTVSS | low polyreactivity
31 | QVQLVESGGGLVQAGGSLRLSCAASGSTFDRYAMGGYIQAPGKERELVAAISWSGGSTYYADSVKGRFTISRDNAKNTVYFQMNSLKPEDTAVYYCASPYYYLHNQRYWGYDYWGQGTQVTVSS | high polyreactivity
32 | QVQLVESGGGLVQAGGSLRLSCAASGSTFDRYDMGWYRQAPGKERELVAAITRRGGSTYYADSVKGRFTISRDNAKNTVYLQMNSLKPEDTAVYYCNAKHFAYSVAHPYLRYGYDYWGQGTQVTVSS | low polyreactivity
33 | QVQLVESGGGLVQAGGSLRLSCAASGSTFDSNAMGWYRQAPGKERELVAPISGSASRTYYADSVKGRFTISRDNAKNTVYLQMNSLKPEDTAVYYCAAVRYHMYYWGQGTQVTVSS | high polyreactivity
34 | QVQLVESGGGLVQAGGSLRLSCAASGSTFDSYAMGWYRPAPGKERELVAAISSGGSTNYADSVKGRFTISRDNAKNTVYLQMYSLKPEDTAVYYCAAYGGHIWWLYRHYGYDYWGQGTQVTVSS | low polyreactivity
35 | QVQLVESGGGLVQAGGSLRLSCAASGSTFDTNAMGWSRQAPGKERELVAAISASGGSTYYADSVKGRFTISRDNAKNTVYLQMNSLKPEDTAVYYCAKTYSTRWWGNGGDYWGQGTQVTVSS | high polyreactivity
36 | QVQLVESGGGLVQAGGSLRLSCAASGSTFDTNAMGWYRQAPGKELVAAISSAGSTYYADSVKGRFTISRDNAKNTVYLQMNSLKPVATAVYYCAAGNAESPYESLEDDYWGQGTQVTVSS | low polyreactivity
37 | QVQLVESGGGLVQAGGSLRLSCAASGSTFDVNAMGWYRQAPGKERELVAAISWNSGSTYYADSVKGRFTISRDNAKNTVYLQMNSLKPEDTAVYYCAATYGTGRRSKYGYWGQGTQVTVSS | high polyreactivity
38 | QVQLVESGGGLVQAGGSLRLSCAASGSTFDVYAMGGYRQAPGKERELVAVISSSDGGITYYADSVKGRFTISRDNAKNTVYLQMNSLKPEDTAVYYCNAESFIWLPQYSDYDYWGQGTQVTVSS | high polyreactivity
39 | QVQLVESGGGLVQAGGSLRLSCAASGSTFDVYAMGWYRQAPGKERELVAAITQSGGSTYYADSVKGRFTISRDNAKNTVYLQMNSLKTEDTAVYYCAAREWRSFDYWGQGTQVTVSS | low polyreactivity
40 | QVQLVESGGGLVQAGGSLRLSCAASGSTFDVYAMGWYRQAPGKERELVAAITSGGTTNYADSVKGRFTISRDNAKNTVYLQMNSLKPEDTAVYYCAKDSRNVYWDYGYWGQGTQVTVSS | low polyreactivity
41 | QVQLVESGGGLVQAGGSLRLSCAASGSTFDWYTMGWYRQAPGKERELVAAISSGGRTYYADSVKGRFTISRDNAKNTVYLQMNSLKPEDTAVYYCAVAWRVGITKYGYWGQGTQVTVSS | high polyreactivity
42 | QVQLVESGGGLVQAGGSLRLSCAASGSTFDWYVMGWYRKAPGKERELVAAINQGSGSTYYADSVKGRFTISRDNAKNTVYLQMNSLKPEDTAVYYCAADRYGAGYLYWPYDYWGQGTQVTVSS | low polyreactivity
43 | QVQLVESGGGLVQAGGSLRLSCAASGSTFDYNAMGWYRQAPGKEMELVAAISRGGNTDYADSVKGRFTISRDNAKNTVYLQMNSLKPEDSAVYYCDADALLEWFDVAYFAYEYWGQGTQVTVSS | low polyreactivity
